Laboratory results reported in patent publication US6770631 (ADPROTECH, dated 2004).

How the values were obtained:
[1] = molecular target: T1, complement receptor-2 (CR2) on the surface of Raji cells (UniProt P20023 21-1033, limits assumed); test: competitive binding on Raji cells against 1 nM 125I-HEL-C3d, 1 h at 4 C, cell-pellet radioactivity
T1 construct: whole, on cells; also called CD21; complement receptor type 2
T1 sequence (looked up): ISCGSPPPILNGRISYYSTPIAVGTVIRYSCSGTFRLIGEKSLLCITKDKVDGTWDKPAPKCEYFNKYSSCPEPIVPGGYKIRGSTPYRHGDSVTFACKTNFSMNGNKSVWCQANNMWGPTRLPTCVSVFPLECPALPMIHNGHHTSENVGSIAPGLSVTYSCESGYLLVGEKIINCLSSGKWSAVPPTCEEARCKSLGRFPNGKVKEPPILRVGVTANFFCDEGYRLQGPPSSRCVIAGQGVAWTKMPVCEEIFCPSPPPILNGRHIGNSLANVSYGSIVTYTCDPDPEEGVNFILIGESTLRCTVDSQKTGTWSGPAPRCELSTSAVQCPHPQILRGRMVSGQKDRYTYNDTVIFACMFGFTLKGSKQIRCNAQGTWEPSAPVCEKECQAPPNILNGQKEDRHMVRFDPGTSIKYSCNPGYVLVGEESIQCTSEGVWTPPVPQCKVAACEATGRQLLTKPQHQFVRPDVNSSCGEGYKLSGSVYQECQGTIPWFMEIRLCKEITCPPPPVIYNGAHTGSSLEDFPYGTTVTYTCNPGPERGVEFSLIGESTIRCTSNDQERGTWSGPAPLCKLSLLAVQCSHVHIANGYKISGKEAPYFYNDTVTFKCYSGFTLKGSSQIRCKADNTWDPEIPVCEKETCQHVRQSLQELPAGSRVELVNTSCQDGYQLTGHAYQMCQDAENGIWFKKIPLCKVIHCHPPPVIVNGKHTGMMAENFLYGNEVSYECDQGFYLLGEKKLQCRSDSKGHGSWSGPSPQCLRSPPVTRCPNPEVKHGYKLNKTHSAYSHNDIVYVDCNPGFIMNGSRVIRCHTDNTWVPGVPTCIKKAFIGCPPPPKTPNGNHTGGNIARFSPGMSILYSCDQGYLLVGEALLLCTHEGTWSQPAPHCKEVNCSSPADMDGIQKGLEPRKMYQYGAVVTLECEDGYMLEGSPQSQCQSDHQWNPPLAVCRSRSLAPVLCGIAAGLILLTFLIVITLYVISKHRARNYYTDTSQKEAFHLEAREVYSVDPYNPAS
Protocol: The cells are then centrifuged through a dibutyl-diiso-octyl-phthalate cushion, and the amount of radioactivity associated with the pellet determined.
The binding was performed as described in General Methods Section (xvii) (a).

[2] = molecular target: T2, co-ligated CR2.IgG1; test: competitive ELISA: plate-bound C3d, 125 pM CR2.IgG1, soluble C3d titrated, HRP anti-mouse IgG1 detection
T2 construct: also called CR2; IgGl
Protocol: C3d is used to coat 96-well microtitre plates at 5 µg/ml in O. 1M NaHCO_3 by incubating overnight at 4° C. The plates are then blocked in 1% BSA 0.1% Tween-20 in PBS for 1 h at room temperature subsequently they are incubated with either 25 µl/well of C3d or from the C3d containing molecule under test in a dose response manner. To the wells is added 25 µl/well of a sub-saturating concentration of co-ligated CR2. […] The plates are then washed three times with PBS containing 0.1% (v/v) Tween-20. The amount of CR2 bound to the immobilised C3d is detected using a 1:3000 dilution of HRP-labeled goat anti-mouse-IgGl-antibody in PBS containing 0.1% (v/v)Tween-20 and incubated for 1 h at room temperature the wells were then washed as described above. The presence of HRP-antibody is detected using the TMB Peroxidase EIA Substrate Kit according to the manufacturer's instructions (Bio-Rad, UK).
The ELISA was performed as described in General Methods Section (xvii) (b). The monomer gave a $I50$ of 2 µM for the baculovirus/Sf9 material. A similar figure was obtained for the COS cell produced C3d.

Binder	IC50 [1] [nM]	IC50 [2] [nM]
C3d monomer produced in baculovirus/Sf9 cells (murine C3d with C-terminal Glu-Glu-Phe tag) (ligand, The end residue 330 was counted from the printed appendix (33 rows of 10 residues); Measured mass 34279 Da; also called baculovirus/Sf9 C3d; C3d1) not shown	2500	2000
C3d expressed in COS cells (ligand, domain: C3d; Comparator material; also called COS cell produced C3d) not shown	2500	
